B1: mAb 5.86.1 (antibody, V domains shown)
VH: QVQLVQSGAEVKKPGASVKVSCKASGYTFTGYHMYWVRQAPGQGLEWLGWINPNSGGTNYAQKFQGRVTMTRDTSISTAYMELSRLRSDDTAVYYCVRDQGIAAAGPFDYWCQGTLVTVSS
VL: DIRMTQSPSSLSASVGDRVTITCRASQRISTYLNWYQQKPGKAPKFLIYAASSLQSGVPSRFSGSGSGTDFTLTISSLQPEDFATYYCQQSYTTPFTFGPGTKVDIKR
notes: Human hybridoma IgG (XenoMouse); also called x5.86
B2: mAb 5.103.1 (antibody, V domains shown)
VH: B1 VH with H33Y, M34L, R38P, L48M, N52S, V97A, G101V, A104V, C112A
VL: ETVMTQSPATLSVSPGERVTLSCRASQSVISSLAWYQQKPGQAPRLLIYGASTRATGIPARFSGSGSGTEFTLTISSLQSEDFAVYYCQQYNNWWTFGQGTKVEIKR
notes: Human hybridoma IgG (XenoMouse); also called 5.103.3; x5.103
B3: mAb 5.83.1 (antibody, V domains shown)
VH: not shown
VL: EIVMTQSPATLSVSPGERATLSCRASQSLISNLAWYQQKPGQAPRLLIFGASTRATGIPARFSGSGSGTEFTLTISSLQSEDFAVYYCHQYNNWWTFGQGTKVEIKR
notes: Human hybridoma IgG (XenoMouse); also called x5.83
B4: mAb 3.31.2 (antibody, V domains shown)
VH: EVQLVESGGGLVQPGGSLRLSCAASGFTFSSYWMSWVRQAPGKGLEWVANIKQDGSDKYYVDSVKGRFTISRDNAKNSLYLRMNSLRAEDTAVFYCARDMGSGWFDYWGQGTLVTVSS
VL: B3 VL with I2V, L29V, I30G, F49Y, Y87C, H89Q, N93H
notes: Human hybridoma IgG (XenoMouse); also called x3.31
B5: mAb 5.13.1 (antibody, V domains shown)
VH: EVQLVESGGGLVQPGGSLRLSCAASGFTFSSYWMSWVRQAPGKGLEWVANIKQDGSEKYYVDSVKGRFTISRDNAKNSLYLQMNSLRAEDTAVYYCARDPGIAVAGPFDYWGQGTLVTVSS
VL: B3 VL with L29V, I30S, F49Y, H89Q, N93H
notes: Human hybridoma IgG (XenoMouse); also called x5.13
B6: mAb 5.88.3 (antibody, V domains shown)
VH: EVQMVESGGGLVQPGGSLRLSCAASGFTLRSYWMSWVRQAPGKGLEWVANIKEDGSEKYHVDSVKGRFTISRDNAENSLFLQMSSLRAEDTAVYYCARDMEASAGLFDYWGQGTLVTVSS
VL: B3 VL with T20I, L29I, I30S, F49Y, H89Q, N93Y
notes: Human hybridoma IgG (XenoMouse); also called x5.88
B7: mAb 5.40.2 (antibody, V domains shown)
VH: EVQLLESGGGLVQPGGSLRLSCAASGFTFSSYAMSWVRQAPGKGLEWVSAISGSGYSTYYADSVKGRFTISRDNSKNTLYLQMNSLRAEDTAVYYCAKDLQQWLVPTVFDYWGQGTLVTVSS
VL: B3 VL with L29V, I30S, A34V, F49Y, G50D, A51S, A60V, H89Q, N93H
notes: Human hybridoma IgG (XenoMouse); also called x5.40
B8: mAb 5.39.1 (antibody, V domains shown)
VH: B1 VH with K12T, G31A, L48M, T91S, A92P, V97A, C112G
VL: B3 VL with E17D, L29V, I30S, L33F, F49Y, A51S, H89Q, N92H, N93Y, I105F
notes: Human hybridoma IgG (XenoMouse); also called x5.39
B9: mAb 5.108.1 (antibody, V domains shown)
VH: QVQLVESGGGVVQPGRSLRLSCAASGFTFSSYGMHWVRQAPGKGLEWVAVIWYDGSNKYYADSVKGRFTISRDNSKNTLYLQMNSLRAEDTAMYYCARELALWGQGTLVTVSS
VL: B3 VL with L29V, I30S, N32Y, F49Y, S52F, S63R, T69P, H89Q, N92S, N93H
notes: Human hybridoma IgG (XenoMouse); also called x5.108
B10: mAb 5.62.1 (antibody, V domains shown)
VH: B5 VH
VL: B3 VL with L29V, I30S, F49Y, S52F, H89Q, N93H, E104G
notes: Human hybridoma IgG (XenoMouse); also called x5.62
B11: mAb 3.3.2 (antibody, V domains shown)
VH: B5 VH with A24V, P100Q
VL: B3 VL with S28T, L29V, I30S, N32D, F49Y, T53I, Y87S, H89Q, N92Y
notes: Human hybridoma IgG (XenoMouse); also called 3.3.1; x3.3
B12: mAb 5.54.1 (antibody, V domains shown)
VH: not shown
VL: B3 VL with V85I
notes: Human hybridoma IgG (XenoMouse); also called x5.54
B13: mAb 5.101.1 (antibody, V domains shown)
VH: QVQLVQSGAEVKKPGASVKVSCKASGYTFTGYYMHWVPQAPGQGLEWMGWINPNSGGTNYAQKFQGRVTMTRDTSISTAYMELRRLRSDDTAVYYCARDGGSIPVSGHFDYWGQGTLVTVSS
VL: B3 VL
notes: Human hybridoma IgG (XenoMouse); also called x5.101
B14: mAb 5.52.1 (antibody, V domains shown)
VH: QVQLVESGGGVVQPGRSLRLSCAASGFTFSSYGMHWVRQAPGKGLEWVAVRWYDESNKYYADSVKGRFTISRDNSKNTLYLQMNSLRAEDTAVYYCARDPFETGTTFDYWGQGTLVTVSS
VL: DIQMTQSPSSVSASVGDRVTITCRASQGISSWLAWYQQKPGKAPKLLIYAVSSLESGVPSRFSGSGSGTDFTLTISSLQPEDFATYYCQQALTFGGGTKVEIKR
notes: Human hybridoma IgG (XenoMouse); the line 5.52 has entries of its own (347, 349; light chain L2) that differ from the clone 5.52.1 (L5); also called x5.52
B15: mAb 5.56.1 (antibody, V domains shown)
VH: QVQLVESGGGVVQPGRSLRLSCAASGFTFSSYGMHWVRQAPGKGLEWVAVIWYDGSNKYYADSVKGRFTISRDNSKNTLYLQMNSLRAEDTAVYYCAREDNWNFYFDYWGQGTLVTVSS
VL: DIQMTQSPSSLSASVGDRVTITCRASQGISYYLAWYQQKPGKVPKLLIYAASTLQSGVPSRFSGSGSGTDFTLTISSLQPEDVATYYCQKYNSAPFTFGPGTKVDIKR
notes: Human hybridoma IgG (XenoMouse); also called x5.56

Here are results for 15 molecules from patent US20080267971A1 (published 2008).

Numbering of substitutions follows the chain as printed.

One experiment addresses T1, human Angiopoietin-2 (human, UniProt O15123 19-496).
T1 construct: Mostly bought recombinant protein (R&D Systems 623-AM/CF, 623-AN; biotinylated BT623) or supernatant of transfected 293F cells; also called Ang-2; rhAng-2
T1 sequence: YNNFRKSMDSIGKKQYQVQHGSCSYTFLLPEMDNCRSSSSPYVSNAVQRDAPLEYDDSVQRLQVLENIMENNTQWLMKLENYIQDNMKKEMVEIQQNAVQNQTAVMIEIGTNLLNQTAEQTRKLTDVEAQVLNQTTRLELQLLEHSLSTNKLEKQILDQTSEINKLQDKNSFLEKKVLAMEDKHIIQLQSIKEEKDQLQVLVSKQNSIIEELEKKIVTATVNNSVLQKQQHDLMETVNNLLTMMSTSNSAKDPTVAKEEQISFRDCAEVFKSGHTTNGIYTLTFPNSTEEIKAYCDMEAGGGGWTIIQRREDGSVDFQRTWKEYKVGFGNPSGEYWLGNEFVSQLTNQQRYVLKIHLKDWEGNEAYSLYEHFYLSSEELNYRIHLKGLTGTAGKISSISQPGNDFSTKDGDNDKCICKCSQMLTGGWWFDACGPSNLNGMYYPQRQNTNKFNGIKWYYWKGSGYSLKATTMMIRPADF
As to the kind of experiment: Biacore, mAb captured. Here is the method: The label-free surface plasmon resonance (SPR), or Biacore, was utilized to measure the antibody affinity to the antigen. For this purpose, a high-density goat anti-human antibody surface over a CM5 Biacore chip was prepared using routine amine coupling. All the purified mAbs were diluted to approximately 8 μg/ml in HBS-P running buffer containing 100 μg/ml BSA and 10 mg/mL carboxymethyldextran. Each mAb was captured on a separate surface using a 42-second contact time, and a 5-minute wash for stabilization of the mAb baseline.
Data were fit globally to a 1:1 interaction model to determine the binding kinetics.
For orientation: Kd means the equilibrium constant for the complex coming apart. What is called koff is a measure of how fast the partners let go of each other. Higher therefore signals fast dissociation. As a reminder, the kon is a measure of how fast the partners come together. Lower therefore signals slow association. B1 showed a Kd of 0.744 nM, a koff of 0.00011 s⁻¹ and a kon of 150000 M⁻¹ s⁻¹.

The molecule B2 displayed a Kd not above 0.045 nM and a kon of 220000 M⁻¹ s⁻¹.

Turning to B3, the Kd is not above 0.147 nM and the kon was found to be 68000 M⁻¹ s⁻¹.

B4 had a Kd not above 0.051 nM and a kon of 190000 M⁻¹ s⁻¹.

B5 registered a Kd not above 0.047 nM and a kon of 210000 M⁻¹ s⁻¹.

As to B6, the Kd is not above 0.037 nM and the kon came to 270000 M⁻¹ s⁻¹.

Consider B7, for which the Kd is not above 0.129 nM and the kon was found to be 78000 M⁻¹ s⁻¹.

In turn, B8 yielded a Kd not above 0.043 nM and a kon of 230000 M⁻¹ s⁻¹.

As to B9, the equilibrium dissociation constant (Kd) was not above 0.031 nM and the kon was found to be 320000 M⁻¹ s⁻¹.

Regarding B10, the Kd was not above 0.065 nM and the kon is 150000 M⁻¹ s⁻¹.

B11: the Kd was not above 0.033 nM and the kon was determined as 300000 M⁻¹ s⁻¹.

As to B12, the Kd is not above 0.066 nM and the kon amounted to 150000 M⁻¹ s⁻¹.

The molecule B13 showed a Kd of 0.581 nM, a koff of 8.7e-05 s⁻¹ and a kon of 150000 M⁻¹ s⁻¹.

The molecule B14 yielded a Kd not above 0.75 nM and a kon of 13000 M⁻¹ s⁻¹.

For B15, the Kd was not above 0.052 nM and the kon turned out to be 190000 M⁻¹ s⁻¹.

In another experiment the target is T1, human Angiopoietin-2. As to the kind of experiment: cell-based or functional assay.
On to B1, for which the “EC50, inhibition of Ang-2-induced Tie2 phosphorylation (HEK293F/Tie2, ELISA)” value (“EC50, inhibition … (HEK293F/Tie2, ELISA)” below) was 0.008 µg/mL.

As for B2, the “EC50, inhibition … (HEK293F/Tie2, ELISA)” value amounted to 0.095 µg/mL.

B4: the “EC50, inhibition … (HEK293F/Tie2, ELISA)” value was 0.043 µg/mL.

As for B6, the “EC50, inhibition … (HEK293F/Tie2, ELISA)” value was 0.016 µg/mL.

With B11, the “EC50, inhibition … (HEK293F/Tie2, ELISA)” value turned out to be 0.046 µg/mL.

Consider B13, for which the “EC50, inhibition … (HEK293F/Tie2, ELISA)” value was 0.733 µg/mL.

The target in another experiment is T1, human Angiopoietin-2. As to the kind of experiment: competition ELISA: biotin-Ang-2 on coated Tie2/Fc. On the procedure: 96-well Nunc Immplates™ were coated with 100 μl of recombinant human Tie2/Fc fusion protein (R&D Systems, Inc., Cat. No. 313-TI-100) at 4 μg/ml by incubating overnight at 4° C. The plates were washed four times using Phosphate Buffer Saline (PBS) with a Skan™ Washer 300 station (SKATRON). The wells were blocked by 100 μl of ABX-blocking buffer (0.5% BSA, 0.1% Tween, 0.01% Thimerosal in PBS) for 1 hour.
The plates were incubated at room temperature for two hours before the unbound molecules were washed off. […] After washing twice, the bound Streptavidin was detected by HRP substrate (R&D Systems, Cat. No. DY998). The plates were incubated for 30 minutes before 450 stop solution (100 μl/well, BioFX, Cat# BSTP-0100-01) was added to terminate the reaction. The light absorbance at 450 nm was determined by a Spectramax Plus reader.
Each concentration of the mAb was tested in duplicate. The concentration-response relationship was found by curve fitting using Graphpad Prism™ graphic software (non-linear, Sigmoid curve). The maximal inhibition (efficacy) and IC₅₀ (potency) were calculated by the software.
In general terms: ELISA stands for enzyme-linked immunosorbent assay.
A word on the EC50: it is the concentration needed to bring the measured effect to its halfway point. A low value points to higher potency in that assay. For B1, the 50% effective concentration (EC50) turned out to be 0.133 µg/mL and the “Efficacy (ratio of bound Ang-2 with mAb 30 µg/ml versus without)” value was determined as 0.384 ratio.

With B2, it took 0.364 µg/mL to reach a half-maximal effect (EC50) and the “Efficacy (ratio of bound Ang-2 with mAb 30 µg/ml versus without)” value worked out at 0.232 ratio.

As to B4, the EC50 was determined as 0.0417 µg/mL and the “Efficacy (ratio of bound Ang-2 with mAb 30 µg/ml versus without)” value was found to be 0.375 ratio.

For B6, the EC50 was 0.156 µg/mL and the “Efficacy (ratio of bound Ang-2 with mAb 30 µg/ml versus without)” value was determined as 0.403 ratio.

Take B11: the EC50 is 0.168 µg/mL and the “Efficacy (ratio of bound Ang-2 with mAb 30 µg/ml versus without)” value worked out at 0.388 ratio.

On to B13, for which the EC50 worked out at 0.376 µg/mL and the “Efficacy (ratio of bound Ang-2 with mAb 30 µg/ml versus without)” value was 0.364 ratio.
